Target: PD-L1 (UniProt Q9NZQ7 19-238, limits assumed)
Assay: cell-based or functional assay

Sequence of PD-L1 (Q9NZQ7 19-238 limits assumed): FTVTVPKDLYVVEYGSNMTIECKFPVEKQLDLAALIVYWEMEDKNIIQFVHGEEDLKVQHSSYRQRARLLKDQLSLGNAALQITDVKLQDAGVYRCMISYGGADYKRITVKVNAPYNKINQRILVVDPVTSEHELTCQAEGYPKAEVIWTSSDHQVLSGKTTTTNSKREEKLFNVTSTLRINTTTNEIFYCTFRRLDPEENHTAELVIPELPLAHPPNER

Row | Binder | EC50, CD4+ T细胞增殖 (混合淋巴细胞反应 MLR, cck8) [ng/mL]
1 | BH2-B11 全抗体 (full antibody, human IgG1/kappa) (antibody, V domains shown) VH: EVQLVESGGGLVQPGGSLRLSCAASGLTWSDSYKHWVRQAPGKGLEWVHWNSTYGGSTYYADSVKGRFTISADTSKNTAYLQMNSLRAEDTAVYYCARRHFASTWDYWGQGTLVTVSS VL: DIQMTQSPSSLSASVGDRVTITCRASQNIHNSLAWYQQKPGKAPKLLIYGASSLESGVPSRFSGSGSGTDFTLTISSLQPEDFATYYCQQERRVPWTFGQGTKVEIKR | 6.73
2 | AH10-E3 全抗体 (full antibody, human IgG1/kappa) (antibody, V domains shown) VH: EVQLVESGGGLVQPGGSLRLSCAASGWTLSDSLQHWVRQAPGKGLEWVGFQSAYGGSTYYADSVKGRFTISADTSKNTAYLQMNSLRAEDTAVYYCARRHYYTAWDYWGQGTLVTVSS VL: DIQMTQSPSSLSASVGDRVTITCRASQSIHNYLAWYQQKPGKAPKLLIYSASNLPSGVPSRFSGSGSGTDFTLTISSLQPEDFATYYCQQGLHTPPTFGQGTKVEIKR | 11.4
3 | AC9-E3 全抗体 (full antibody, human IgG1/kappa) (antibody, V domains shown) VH: EVQLVESGGGLVQPGGSLRLSCAASGCTWSDSWDHWVRQAPGKGLEWVDYESTYGGSTYYADSVKGRFTISADTSKNTAYLQMNSLRAEDTAVYYCARRHWNATFDYWGQGTLVTVSS VL: DIQMTQSPSSLSASVGDRVTITCRASQSIHNYLAWYQQKPGKAPKLLIYSASNLPSGVPSRFSGSGSGTDFTLTISSLQPEDFATYYCQQGLHTPPTFGQGTKVEIKR | 11.9
4 | AH10-B11 全抗体 (full antibody, human IgG1/kappa) (antibody, V domains shown) VH: EVQLVESGGGLVQPGGSLRLSCAASGWTLSDSLQHWVRQAPGKGLEWVGFQSAYGGSTYYADSVKGRFTISADTSKNTAYLQMNSLRAEDTAVYYCARRHYYTAWDYWGQGTLVTVSS VL: DIQMTQSPSSLSASVGDRVTITCRASQNIHNSLAWYQQKPGKAPKLLIYGASSLESGVPSRFSGSGSGTDFTLTISSLQPEDFATYYCQQERRVPWTFGQGTKVEIKR | 9.88
5 | BH2-E3 全抗体 (full antibody, human IgG1/kappa) (antibody, V domains shown) VH: EVQLVESGGGLVQPGGSLRLSCAASGLTWSDSYKHWVRQAPGKGLEWVHWNSTYGGSTYYADSVKGRFTISADTSKNTAYLQMNSLRAEDTAVYYCARRHFASTWDYWGQGTLVTVSS VL: DIQMTQSPSSLSASVGDRVTITCRASQSIHNYLAWYQQKPGKAPKLLIYSASNLPSGVPSRFSGSGSGTDFTLTISSLQPEDFATYYCQQGLHTPPTFGQGTKVEIKR | 7.71
6 | AC9-B11 全抗体 (full antibody, human IgG1/kappa) (antibody, V domains shown) VH: EVQLVESGGGLVQPGGSLRLSCAASGCTWSDSWDHWVRQAPGKGLEWVDYESTYGGSTYYADSVKGRFTISADTSKNTAYLQMNSLRAEDTAVYYCARRHWNATFDYWGQGTLVTVSS VL: DIQMTQSPSSLSASVGDRVTITCRASQNIHNSLAWYQQKPGKAPKLLIYGASSLESGVPSRFSGSGSGTDFTLTISSLQPEDFATYYCQQERRVPWTFGQGTKVEIKR | 7.58
